Experimental data reported in publication PMC7763228, “Structural Studies of HNA Substrate Specificity in Mutants of an Archaeal DNA Polymerase Obtained by Directed Evolution”.

Assays:
[1] = target: T1, TgoT_6G12 DNA polymerase (Thermococcus gorgonarius, UniProt P56689 1-773, V93Q;D141A;E143A;A485L;V589A;E609K;I610M;K659Q;E664Q;Q665P;R668K;D669Q;K671H;K67 …); assay: X-ray crystallography; binary complex, 2.8 A; ddTTP added; 10% PEG 20K, 0.1 M MES-NaOH pH 6.5; Co-crystallization: protein 5 mg/mL with 1.5x primer-template, 5 mM ddTTP or hCTP/ddCTP, 2 mM MnCl2 (not stated for the 6G12 binary DNA complex); incubated at 4 C (binary) or room temperature; 5-10% PEG 20K, 0.1 M MES-NaOH pH 6.0-6.5; protein buffer 50 mM Tris-HCl pH 7.5, 200 mM NaCl, 0.1 mM EDTA, 1 mM DTT; conditions: protein: recombinant, template 5' overhang 8 nt
T1 sequence: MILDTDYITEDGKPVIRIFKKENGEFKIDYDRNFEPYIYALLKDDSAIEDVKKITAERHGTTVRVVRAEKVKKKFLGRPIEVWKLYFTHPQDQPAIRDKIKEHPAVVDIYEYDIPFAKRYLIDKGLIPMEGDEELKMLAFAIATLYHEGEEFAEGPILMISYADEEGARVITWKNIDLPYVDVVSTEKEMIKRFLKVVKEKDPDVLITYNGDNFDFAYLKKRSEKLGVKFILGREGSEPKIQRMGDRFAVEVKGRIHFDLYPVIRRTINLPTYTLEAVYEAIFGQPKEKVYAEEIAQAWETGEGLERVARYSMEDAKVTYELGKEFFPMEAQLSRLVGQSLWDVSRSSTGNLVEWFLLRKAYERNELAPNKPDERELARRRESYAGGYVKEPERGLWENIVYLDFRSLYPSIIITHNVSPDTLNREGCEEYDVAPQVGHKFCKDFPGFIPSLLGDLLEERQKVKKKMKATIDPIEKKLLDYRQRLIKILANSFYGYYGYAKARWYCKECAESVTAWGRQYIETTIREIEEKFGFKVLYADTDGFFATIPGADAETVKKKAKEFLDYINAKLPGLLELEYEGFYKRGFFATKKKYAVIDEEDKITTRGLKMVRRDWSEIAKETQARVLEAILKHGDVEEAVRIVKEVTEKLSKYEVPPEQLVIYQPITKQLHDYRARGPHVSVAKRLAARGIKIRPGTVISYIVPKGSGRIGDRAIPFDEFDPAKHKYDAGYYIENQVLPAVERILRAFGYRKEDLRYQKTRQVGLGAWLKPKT

[2] = target: T1, TgoT_6G12 DNA polymerase; assay: X-ray crystallography; ternary complex with incoming ddTTP, 2 mM MnCl2, 3.15 A; 5% PEG 20K, 0.1 M MES-NaOH pH 6.0; Co-crystallization: protein 5 mg/mL with 1.5x primer-template, 5 mM ddTTP or hCTP/ddCTP, 2 mM MnCl2 (not stated for the 6G12 binary DNA complex); incubated at 4 C (binary) or room temperature; 5-10% PEG 20K, 0.1 M MES-NaOH pH 6.0-6.5; protein buffer 50 mM Tris-HCl pH 7.5, 200 mM NaCl, 0.1 mM EDTA, 1 mM …; conditions: protein: recombinant, template 5' overhang 8 nt

B1: P5-T13 primer-template (dsDNA)
DNA 1: CGCAT
DNA 2: AACGGCTAATGCG
**Q.** Does B1 bind [1]?
**A.** binds

B2: P5-T13' primer-template (dsDNA)
DNA 1: CGCAT
DNA 2: AACGGCAAATGCG
**Q.** Does B2 bind [2]?
**A.** binds
